Source: the supplement of paper PMC11780869

Tested on: Bacillus subtilis
Assay: cleaved RNA product abundance (RNA/gDNA barcode ratio) relative to median wild-type variant (ratio to wild type); higher = more accumulation of the downstream cleavage product
How it was run: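 Reporter mRNAs (truncated aprE or tetM) carrying barcoded, mutagenized RNase Y cleavage-site windows were made from oligos with a 9% error rate and integrated into the B. subtilis chromosome. Cultures grew in LB at 37°C from OD600 0.0003 to 0.3. Cleaved RNA was gel-selected, reverse transcribed and barcode-sequenced alongside genomic DNA barcodes, with UMI collapsing. Cleaved product abundance is the RNA:gDNA barcode ratio per variant, scaled to the median wild-type variant.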

[1] = experiment (reporter, strain, medium): exp 4a: truncated aprE reporter, strain BJT201 with 2% xylose (RNase J1 expressed), cleavage site: cggR-gapA (positions -7 to +36 mutated)
[2] = experiment (reporter, strain, medium): exp 6: tetM reporter, strain 168, cleavage site: cggR-gapA (positions -7 to +36 mutated)
[3] = experiment (reporter, strain, medium): exp 8a: truncated aprE reporter, strain BJT201 with 2% xylose (RNase J1 expressed), cleavage site: glnRA (positions -5 to +31 mutated)
[4] = experiment (reporter, strain, medium): exp 2b: truncated aprE reporter, strain BJT200, cleavage site: cggR-gapA (positions -7 to +36 mutated)

Row | Sequence | cleaved RNA product abundance [1] | cleaved RNA product abundance [3] | further results
1 | ACAGACGAAGGAGCCGCAAAAAAGTTATTAAGGGATGAATAATCCCTGAATATAAATATCTCTCACTTATTTAAA | 0.427 | – | –
2 | ACAGACGAAGGAGCCGTAAAGAAGTTATTAAGGGATGAATAATCCCTCAATATAAATATCTCTCACTTATTTAAA | – | – | cleaved RNA product abundance [2]: 1.09
3 | CGACATGTCCCGCTTCTTTCATTACTCCGTTAGCAACTGTTTTGCTATATACATTTGCCTTTTAAGAGGAGGAAT | – | 0.366 | –
4 | ACAGACGAAGGAGCCGCAAAGAAGTTATTAAGGGATGAACAATCCCTCAATATAAATATCTCTCACTTATTTAAA | 0.864 | – | cleaved RNA product abundance [4]: 0.842; cleaved RNA product abundance [2]: 0.875
5 | ACAGACGAAGGAGCCGCAAAGAAGTTATTAAGGGATGAATAATCCCTCCACATAAATATCTCTCACTTATTTAAA | – | – | cleaved RNA product abundance [4]: 0.108
6 | CGACATGTCCCGCTTCTTTCATTAATCCGTTAGCAACTATTTTGGTATATACATTTACCTTTTAAGAGGAGGAAT | – | 0.273 | –
7 | ACAGACGAAGGAGCCGCAAAGAAGTTACTAAGGTATGAATAATCCCTCAATATAAATATCTCTCACTTATTTAAA | 0.15 | – | cleaved RNA product abundance [4]: 0.103; cleaved RNA product abundance [2]: 0.0813
8 | ACAGACGAAGGAGCCGCAAAGAAGTTATTAAGGAACGAATAATCCCTCAATATAAATATCTCTCACTTATTTAAA | 0.073 | – | cleaved RNA product abundance [4]: 0.0842
9 | ACAGACGAAGGAGCCGCCAAGAAGTTATTAAGGGATGAATAATCCCTTAATATAAATATCTCTCACTTATTTAAA | 0.305 | – | cleaved RNA product abundance [4]: 0.21
10 | ACAGACGAAGGAGCCGCAAAGAAGTTATTAAGGGATGAATAATCCCTTAATATAAATAACTCTCACTTATTTAAA | 0.433 | – | –
11 | ACAGACGAAGGAGCCGCAAAGAAGTTATAAAGGGATGAATAATCCCTCAATATAAATATATCTCACTTATTTAAA | 0.419 | – | –
12 | ACAGACGAAGGAGCCGCAAAGAAGTTATTAAGGAATGAATAATCCATCAATATAAATATCTCTCACTTATTTAAA | 0.124 | – | cleaved RNA product abundance [4]: 0.0915
13 | CGACATGTCCCGCTTCTTTCATTATTCCGTTAGCAACTGTTTTGCTCTATACATTTACCTTTTAAGAGGAGGAAT | – | 0.354 | –
14 | CGACATGTCCCGCTTCTTTCATTAATCCCTTAGCAACTGTTTTGCTATATACAATTACCTTTTAAGAGGAGGAAT | – | 0.305 | –
15 | ACAGACGAAGGAGCCGCAAAGAAGTTATTAAGGGCTGAATAATCCCTCAATATAAATAACTCTCACTTATTTAAA | 0.729 | – | –
16 | ACAGACGAAGGAGCCGCAAAGAAGTTATTAAGGGATGTATAATCCGTCAATATAAATATCTCTCACTTATTTAAA | 0.187 | – | –
17 | CGACATGTCCCGCTTCTTTCATTAATCCGTTAGCAACTGTTTTGCTATTTAAATTTACCTTTTAAGAGGAGGAAT | – | 0.144 | –
18 | ACAGACGAAGGAGCCGCAAAGATGTCATTAAGGGATGAATAATCCCTCAATATAAATATCTCTCACTTATTTAAA | 0.205 | – | –
19 | CGACATGTCCCGCTTCTTTCATTATTCCGTTAGCAACTGTTTTCATAAATACATTTACCTTTTAAGAGGAGGAAT | – | 0.375 | –
20 | CGACATGTCCCGCTTCTTTCATTATTCCGTTAGCAACTGTTTCGCTATATACATTTACCTTTTAAGAGGAGGAAT | – | 0.509 | –
21 | ACAGACGAAGGAGCCGCAAAAATGTTATTAAGGGATGAATAATCCCTCAATATAAATATCTCTCACTTATTTAAA | 0.983 | – | –
22 | CGACATGTCCCGCTTCTTTCATTAATCCGTCAGCAAATGTTTTGCTATATACATTTACCTTTTAAGAGGAGGAAT | – | 0.398 | –
23 | CGACATGTCCCGCTTCTTTCATTAATCCGTTAGCAACTGTTGTACTATATACATTTACCTTTTAAGAGGAGGAAT | – | 0.713 | –
24 | CGACATGTCCCGCTTCTTTCATTAATCCGTTAGCAACTGTTTTACTATATACATTTATCTTTTAAGAGGAGGAAT | – | 0.588 | –
25 | CGACATGTCCCGCTTCTTTCATTATTCCGTTAGCAACTGTGTTGCTATATACATTTACCTTTTAAGAGGAGGAAT | – | 0.7 | –
26 | ACAGACGAAGGAGCCGCAAAGAAGTTATTAAGGGTTGAATAATCCGTCAATATAAATATCTCTCACTTATTTAAA | 0.187 | – | –
